Series [1] concerns the molecule itself. As to the kind of experiment: far-Western, overlay or dot blot; monomeric 12-repeat DPRs seeded with brain-derived DPRs at 1:70 M ratio (seed to monomer), orbital shaker, 37 °C, 72 h; oligomerization confirmed by dot blot.
Series [2] concerns the molecule itself. As to the kind of experiment: far-Western, overlay or dot blot; synthetic DPRs gently stirred in 1x PBS for 6 days, aliquots at days 1, 2, 4 and 6; 1 ul of 1 mg/ml dotted on nitrocellulose; oligomers read out with oligomer-specific antibody A11-19 (1:8000), fibrillar aggregates with OC (1:10,000).

B1: proline–arginine dipeptide protein repeat, 12 repeats (PR12) (peptide)
peptide: PRPRPRPRPRPRPRPRPRPRPRPR
notes: source: synthetic peptide (Scenic Biotech)
As for B1, in series [1], the binding result is “binds”.

B2: glycine–alanine dipeptide protein repeat, 6 repeats (GA6) (peptide)
peptide: GAGAGAGAGAGA
notes: as for B1
Consider B2, for which the binding result in series [2] is “binds”.

B3: glycine–alanine dipeptide protein repeat, 3 repeats (GA3) (peptide)
peptide: GAGAGA
notes: as for B1
As for B3, the binding result in series [2] is on record as “binds”.

B4: glycine–alanine dipeptide protein repeat, 12 repeats (GA12) (peptide)
peptide: GAGAGAGAGAGAGAGAGAGAGAGA
notes: as for B1
On to B4, for which the binding result in series [1] is reported as “binds”.

B5: proline–arginine dipeptide protein repeat, 3 repeats (PR3) (peptide)
peptide: PRPRPR
notes: as for B1
Regarding B5, the binding result in series [2] is recorded as “binds”.

B6: proline–arginine dipeptide protein repeat, 6 repeats (PR6) (peptide)
peptide: PRPRPRPRPRPR
notes: as for B1
With B6, in series [2], the binding result is “binds”.

B7: glycine–arginine dipeptide protein repeat, 6 repeats (GR6) (peptide)
peptide: GRGRGRGRGRGR
notes: as for B1
As for B7, the binding result in series [2] is given as “binds”.

B8: glycine–arginine dipeptide protein repeat, 12 repeats (GR12) (peptide)
peptide: GRGRGRGRGRGRGRGRGRGRGRGR
notes: as for B1
For the protein B8, the binding result in series [1] was “binds”.

B9: glycine–arginine dipeptide protein repeat, 3 repeats (GR3) (peptide)
peptide: GRGRGR
notes: as for B1
For B9, in series [2], the binding result is “binds”.

The values above are taken from paper PMC10844744, “C9orf72-associated dipeptide protein repeats form A11-positive oligomers in amyotrophic lateral sclerosis and frontotemporal dementia” (The Journal of Biological Chemistry, 2024).
